According to patent US20060276387A1 (published 2006):

biological target: human IPF1, N-terminus FLAG-tagged (from pcDNA-FLAG-IPF1) (human, UniProt P52945 1-283, limits assumed); assay: cell-based or functional assay
Sequence (P52945 whole entry): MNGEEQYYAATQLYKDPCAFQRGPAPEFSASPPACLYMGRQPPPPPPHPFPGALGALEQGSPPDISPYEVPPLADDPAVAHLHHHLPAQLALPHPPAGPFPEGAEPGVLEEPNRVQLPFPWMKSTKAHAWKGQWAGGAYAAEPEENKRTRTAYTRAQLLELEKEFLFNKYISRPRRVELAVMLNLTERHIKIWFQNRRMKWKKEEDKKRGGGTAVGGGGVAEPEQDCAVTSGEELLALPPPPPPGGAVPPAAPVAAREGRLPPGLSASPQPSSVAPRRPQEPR

Row | IPF1-dependent human insulin promoter activity (luciferase reporter, HeLa cells), inhibition | Binder
1 | ~45% | human hepatocyte nuclear factor 3-gamma (HNF3G), N-terminus HA-tagged (other, not shown: small tags and cut ends, 35S-methionine-labeled (in the pull-down)) MLGSVKMEAHDLAEWSYYPEAGEVYSPVTPVPTMAPLNSYMTLNPLSSPYPPGGLPASPLPSGPLAPPAPAAPLGPTFPGLGVSGGSSSSGYGAPGPGLVHGKEMPKGYRRPLAHAKPPYSYISLITMAIQQAPGKMLTLSEIYQWIMDLFPYYRENQQRWQNSIRHSLSFNDCFVKVARSPDKPGKGSYWALHPSSGNMFENGCYLRRQKRFKLEEKVKKGGSGAATTTRNGTGSAASTTTPAATVTSPPQPPPPAPEPEAQGGEDVGALDCGSPASSTPYFTGLELPGELKLDAPYNFNHPFSINNLMSEQTPAPPKLDVGFGGYGAEGGEPGVYYQGLYSRSLLNAS
2 | ~25% | human PHD finger protein 1 (PHF1), N-terminus HA-tagged (other, not shown: small tags and cut ends, 35S-methionine-labeled (in the pull-down)) MAQPPRLSRSGASSLWDPASPAPTSGPRPRLWEGQDVLARWTDGLLYLGTIKKVDSAREVCLVQFEDDSQFLVLWKDISPAALPGEELLCCVCRSETVVPGNRLVSCEKCRHAYHQDCHVPRAPAPGEGEGTSWVCRQCVFAIATKRGGALKKGPYARAMLGMKLSLPYGLKGLDWDAGHLSNRQQSYCYCGGPGEWNLKMLQCRSCLQWFHEACTQCLSKPLLYGDRFYEFECCVCRGGPEKVRRLQLRWVDVAHLVLYHLSVCCKKKYFDFDREILPFTSENWDSLLLGELSDTPKGERSSKLLSALNSHKDRFISGREIKKRKCLFGLHARMPPPVEPPTGDGALTSFPSGQGPGGGVSRPLGKRRRPEPEPLRRRQKGKVEELGPPSAVRNQPEPQEQRERAHLQRALQASVSPPSPSPNQSYQGSSGYNFRPTDARCLPSSPIRMFASFHPSASTAGTSGDSGPPDRSPLELHIGFPTDIPKSAPHSMTASSSSVSSPSPGLPRRSAPPSPLCRSLSPGTGGGVRGGVGYLSRGDPVRVLARRVRPDGSVQYLVEWGGGGIF
3 | ~60% | human distal-less homeobox 4 (DLX4), N-terminus HA-tagged (other, not shown: small tags and cut ends, 35S-methionine-labeled (in the pull-down)) MTSLPCPLPGRDASKAVFPDLAPVPSVAAAYPLGLSPTTAASPNLSYSRPYGHLLSYPYTEPANPGDSYLSCQQPAALSQPLCGPAEHPQELEADSEKPRLSPEPSERRPQAPAKKLRKPRTIYSSLQLQHLNQRFQHTQYLALPERAQLAAQLGLTQTQVKIWFQNKRSKYKKLLKQNSGGQEGDFPGRTFSVSPCSPPLPSLWDLPKAGTLPTSGYGNSFGAWYQHHSSDVLASPQMM
